First the molecules themselves.
B1: Ovalbumin, P01012 (parent)
chain: MGSIGAASMEFCFDVFKELKVHHANENIFYCPIAIMSALAMVYLGAKDSTRTQINKVVRFDKLPGFGDSIEAQCGTSVNVHSSLRDILNQITKPNDVYSFSLASRLYAEERYPILPEYLQCVKELYRGGLEPINFQTAADQARELINSWVESQTNGIIRNVLQPSSVDSQTAMVLVNAIVFKGLWEKAFKDEDTQAMPFRVTEQESKPVQMMYQIGLFRVASMASEKMKILELPFASGTMSMLVLLPDEVSGLEQLESIINFEKLTEWTSSNVMEERKIKVYLPRMKMEEKYNLTSVLMAMGITDVFSSSANLSGISSAESLKISQAVHAAHAEINEAGREVVGSAEAGVDAASVSEEFRADHPFLFCIKHIATNAVLFFGRCVSP

Variants of B1 are the subject of the data set. The conditions noted are these: Gallus gallus, Thermal, CD, structure 1UHG, whole UniProt chain shown.

For R143A S321A, for the setting “pH 7, Phosphate 10 mM”, the Tm amounted to 70 °C and the “change of melting temperature, mutant - wild type (higher = more stable)” value (“change of melting temperature, mutant” for short) came to 0.2 °C. For the setting “pH 10, Glycine-NaOH 0.1 M”, the Tm is 71.2 °C and the “change of melting temperature, mutant” value was -7.7 °C.

For S165A, the Tm was 70.8 °C (pH 7, Phosphate 10 mM) and 75.6 °C (pH 10, Glycine-NaOH 0.1 M). Moreover, the “change of melting temperature, mutant” value is 1 °C (pH 7, Phosphate 10 mM) and -3.3 °C (pH 10, Glycine-NaOH 0.1 M).

S321A: under “pH 7, Phosphate 10 mM”, the Tm stood at 69.3 °C and the “change of melting temperature, mutant” value was -0.5 °C.

As for R143A, under “pH 7, Phosphate 10 mM”, the Tm was determined as 69.8 °C and the “change of melting temperature, mutant” value came to 0 °C. Further, for the setting “pH 10, Glycine-NaOH 0.1 M”, the Tm amounted to 75.6 °C and the “change of melting temperature, mutant” value was -3.3 °C.

With S237A, under “pH 7, Phosphate 10 mM”, the Tm is 70.4 °C and the “change of melting temperature, mutant” value was 0.6 °C. Further, where the note is “pH 10, Glycine-NaOH 0.1 M”, the Tm worked out at 79.3 °C and the “change of melting temperature, mutant” value worked out at 0.4 °C.

For the variant S165A S321A, the Tm is, setting by setting: (pH 7, Phosphate 10 mM) 71.3 °C; (pH 10, Glycine-NaOH 0.1 M) 71.8 °C. Moreover, the “change of melting temperature, mutant” value reads like this: (pH 7, Phosphate 10 mM) 1.5 °C; (pH 10, Glycine-NaOH 0.1 M) -7.1 °C.

These data come from FireProtDB (doi:10.1002/pro.398).
